According to patent publication US20240270821A1, “GIP/GLP1/GCG TRI-RECEPTOR AGONISTS AND USES THEREOF” (priority 2023, published 2024):
Where a chain is given by its changes, count along the chain named. Starred links: 1 amine or outer side, 2 acyl side, 3 side chain; linkers in the order of their positions; H or OH if unused. Non-standard residues stand in square brackets, D forms with d. Groups on a side chain read outwards from the residue. No end group written: not given here. *: point of attachment. C20 diacid = O=C(O)CCCCCCCCCCCCCCCCCCC(=O)*; αMePhe(2-F) = C[C@](N)(Cc1ccccc1F)C(=O)O; γGlu = O=C(O)[C@H](CCC(=O)[*:2])N[*:1]; αMeL = CC(C)C[C@](C)(N)C(=O)O; Orn = NCCC[C@H](N)C(=O)O; AEEA = NCCOCCOCC(=O)O; Aib = CC(C)(N)C(=O)O

B1: Example 310 (peptide)
chain: Y[Aib]QGT[αMePhe(2-F)]TSDYSKLLDKIAQK[Orn]FIEWLIEGGPSSGEPPPSEG-NH2
modifications: not fully specified (residue 20); ends and bridges not checked
B2: Example 314 (peptide)
chain: Y[Aib]QGTFTSDYSK[αMeL]LDKK([AEEA-γGlu-C20 diacid])AQQAFIQWLIEGGPSSGEPPPSEG-NH2
B3: Example 326 (peptide)
chain: Y[Aib]QGTFTSDYSI[αMeL]LDKQAAK([AEEA-AEEA-γGlu-C20 diacid])QFVEWLIA[Aib]GPSSGEPPPSEG-NH2
B4: Example 322 (peptide)
chain: Y[Aib]QGTFTSDYSK[αMeL]LDKK([AEEA-γGlu-C20 diacid])AQQAFIEYLIAGGPSSGAPPPSSE-NH2
B5: Example 454 (peptide)
chain: YXQGTXTSDXSILLDXIAQXAFIKYLEEGGPSSGAPPPS
modifications: synthetic construct; SITE 2: note = 2-Aminoisobutyric Acid; SITE 6: note = alpha-methyl-2-fluoro-L-phenylalanine; SITE 10: note = 3-(4-Pyridyl)-L-alanine; SITE 16: note = L-ornithine; SITE 20: note = 2-Aminoisobutyric Acid; SITE 24: note = Lysine is chemically modified through conjugation of the eps
B6: Example 455 (peptide)
chain: B5 chain with X10Y, L13X, X16K
modifications: synthetic construct; SITE 2: note = 2-Aminoisobutyric Acid; SITE 6: note = alpha-methyl-2-fluoro-L-phenylalanine; SITE 13: note = alpha-methyl-leucine; SITE 20: note = 2-Aminoisobutyric Acid; SITE 24: note = Lysine is chemically modified through conjugation of the epsilon-amino group of the Lysine s
B7: Example 496 (peptide)
chain: YXQGTFTSDFSXXLDKKAQXAFIEXLLEGGPSSGAPPPGGS
modifications: synthetic construct; SITE 2: note = 2-Aminoisobutyric Acid; SITE 12: note = L-ornithine; SITE 13: note = alpha-methyl-leucine; SITE 17: note = Lysine is chemically modified through conjugation of the epsilon-amino group of the Lysine side chain with (2-[2-(2-Amino-ethoxy)-ethoxy]-acetyl)-(gamma-Glu)
B8: Example 312 (peptide)
chain: Y[Aib]QGTFTSDYSI[αMeL]LDKIAAK([AEEA-AEEA-γGlu-C20 diacid])QFVEYLIAGGPSSGEPPPSEG-NH2
B9: Example 313 (peptide)
chain: Y[Aib]QGTFTSDYSI[αMeL]LDKK([AEEA-γGlu-C20 diacid])AQRAFIEYLLEGGPSSGEPPPSG-NH2
B10: Example 327 (peptide)
chain: Y[Aib]QGTFTSDYSI[αMeL]LDKQAAK([AEEA-AEEA-γGlu-C20 diacid])QFVEWLLA[Aib]GPSSGAPPPSEG-NH2
B11: Example 324 (peptide)
chain: Y[Aib]QGTFTSDYSI[αMeL]LDKIAAK([AEEA-AEEA-γGlu-C20 diacid])QFVEWLLA[Aib]GPSSGEPPPSEG-NH2

These binders were tested against hGLP-1R (Homo sapiens, UniProt P43220) (assay: cell-based or functional assay).
hGLP-1R, sequence (P43220 24-463): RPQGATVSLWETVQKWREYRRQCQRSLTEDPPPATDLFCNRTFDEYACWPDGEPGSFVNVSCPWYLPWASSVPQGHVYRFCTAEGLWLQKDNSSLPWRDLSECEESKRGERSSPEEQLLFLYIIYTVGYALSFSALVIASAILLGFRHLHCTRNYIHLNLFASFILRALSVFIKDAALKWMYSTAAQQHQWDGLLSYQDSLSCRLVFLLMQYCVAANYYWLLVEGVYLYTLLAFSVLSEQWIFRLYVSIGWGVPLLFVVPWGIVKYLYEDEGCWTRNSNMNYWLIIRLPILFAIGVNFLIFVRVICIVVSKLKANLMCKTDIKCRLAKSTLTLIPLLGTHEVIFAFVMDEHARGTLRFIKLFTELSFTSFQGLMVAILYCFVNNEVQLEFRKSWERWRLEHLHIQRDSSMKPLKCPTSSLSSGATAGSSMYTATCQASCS

Binder | Relative cAMP EC50 | cAMP Rel EC50 (1% HSA) | Relative cAMP EC50, nM (0.1% casein)
B1 | 0.586 nM | 177 nM | –
B2 | 0.274 nM | 100 nM | –
B3 | 0.555 nM | 172 nM | –
B4 | 0.394 nM | 135 nM | –
B5 | – | – | 0.821 nM
B6 | – | – | 0.49 nM
B7 | – | – | 9.69 nM
B8 | 2.66 nM | 589 nM | –
B9 | 0.304 nM | 135 nM | –
B10 | 1.61 nM | 473 nM | –
B11 | 4.4 nM | 1060 nM | –

Each binder was assayed against T1, human GIP receptor (human) (UniProt P48546) (assay: cell-based or functional assay).
T1 sequence (looked up): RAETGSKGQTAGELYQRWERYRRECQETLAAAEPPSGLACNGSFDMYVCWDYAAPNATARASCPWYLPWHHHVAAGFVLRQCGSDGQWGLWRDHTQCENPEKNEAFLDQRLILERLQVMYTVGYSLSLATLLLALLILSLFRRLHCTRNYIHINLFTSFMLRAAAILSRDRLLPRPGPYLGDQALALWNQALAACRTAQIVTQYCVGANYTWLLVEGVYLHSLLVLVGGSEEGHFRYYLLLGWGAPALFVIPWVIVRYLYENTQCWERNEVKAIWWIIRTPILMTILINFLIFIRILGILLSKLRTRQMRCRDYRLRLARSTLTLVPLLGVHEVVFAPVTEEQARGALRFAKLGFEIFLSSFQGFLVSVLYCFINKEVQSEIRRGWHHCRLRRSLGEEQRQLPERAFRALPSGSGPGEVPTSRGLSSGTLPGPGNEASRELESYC

Binder | Relative cAMP EC50 | cAMP Rel EC50 (1% HSA) | Relative cAMP EC50, nM (0.1% casein)
B1 | 0.0939 nM | 15 nM | –
B2 | 0.345 nM | 65.9 nM | –
B3 | 0.3 nM | 83.7 nM | –
B4 | 0.264 nM | 89.3 nM | –
B5 | – | – | 0.0154 nM
B6 | – | – | 0.0182 nM
B7 | – | – | 0.387 nM
B8 | 0.504 nM | 97.7 nM | –
B9 | 0.49 nM | 86.4 nM | –
B10 | 0.312 nM | 63.3 nM | –
B11 | 0.164 nM | 20.7 nM | –

What follows are binders tested against human glucagon receptor (human) (UniProt P47871) (assay: cell-based or functional assay).
human glucagon receptor (human), sequence (P47871 26-477): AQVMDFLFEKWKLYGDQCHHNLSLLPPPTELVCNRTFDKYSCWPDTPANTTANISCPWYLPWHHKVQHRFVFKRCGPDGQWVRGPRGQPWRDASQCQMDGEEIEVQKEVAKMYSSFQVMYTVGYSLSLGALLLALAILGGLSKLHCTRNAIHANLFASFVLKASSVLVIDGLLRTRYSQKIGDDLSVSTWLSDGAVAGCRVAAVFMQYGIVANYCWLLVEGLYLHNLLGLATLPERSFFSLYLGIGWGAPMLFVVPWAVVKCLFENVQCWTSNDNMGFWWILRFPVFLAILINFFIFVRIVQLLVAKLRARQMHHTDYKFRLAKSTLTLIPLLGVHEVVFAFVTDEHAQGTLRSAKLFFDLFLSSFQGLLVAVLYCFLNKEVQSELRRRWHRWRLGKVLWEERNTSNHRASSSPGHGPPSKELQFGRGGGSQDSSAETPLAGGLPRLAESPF

Binder | Relative cAMP EC50 | cAMP Rel EC50 (1% HSA) | Relative cAMP EC50, nM (0.1% casein)
B1 | 3.52 nM | 4000 nM | –
B2 | 3.7 nM | 1030 nM | –
B3 | 5.34 nM | 1500 nM | –
B4 | 5.41 nM | 2620 nM | –
B5 | – | – | 9.11 nM
B6 | – | – | 4.36 nM
B7 | – | – | 8.25 nM
B8 | 7.5 nM | 4070 nM | –
B9 | 4.11 nM | 3290 nM | –
B10 | 3.04 nM | 1400 nM | –
B11 | 5.74 nM | 1410 nM | –
